Source: EP0363874A1, “Enzymes bound to a polymer matrix in water-soluble form” (Etablissement TEXCONTOR, priority 1988, dated 1990)

Key:
[1] = Water solubility of the supported enzyme; format: physicochemical; details: for WATER SOLUBILITY: papain grafted onto DAS preparations of variable aldehyde titre
Procedure: (§1) The proteolytic activity of the product of Example 1 was determined by the American Pharmacopeia method (USP XXI). Various DAS preparations of variable aldehyde titre were used, obtained by varying the reaction times, in order to establish a comparison between the aldehyde titre, the solubility of the enzymatic preparation and the activity of this latter.

[2] = Proteolytic activity of papain grafted onto DAS, American Pharmacopeia method (USP XXI); format: biochemical; details: papain grafted onto DAS preparations of variable aldehyde titre
Procedure: as §1

[3] = Release of enzyme from the polymer matrix; format: physicochemical; details: aqueous solution
[4] = Stability in aqueous solution (retention of enzyme activity); format: physicochemical
[5] = Stability in solid state (retention of enzyme activity); format: physicochemical

Molecule	water-solubility ([1]; lyophilized product)	WATER SOLUBILITY [1]	µg OF ACTIVE PAPAIN per 100 mg POLYMER [2] [µg per 100 mg POLYMER]	time without release of enzyme [3]	time for which the activity is maintained [4]	time for which the activity is maintained [5]
DAS.2: papain grafted onto starch polyaldehyde (DAS) of aldehyde titre 5.8 x 10⁻³ meq CHO/mg and reduced with sodium borohydride (conjugate, UniProt P00784 134-345, looked up, grafted onto starch polyaldehyde, borohydride-reduced, papain grafted onto starch polyaldehyde (DAS) of aldehyde titre 5.8 x 10⁻³ meq CHO/mg and reduced with sodium borohydride) Papain: IPEYVDWRQKGAVTPVKNQGSCGSCWAFSAVVTIEGIIKIRTGNLNEYSEQELLDCDRRSYGCNGGYPWSALQLVAQYGIHYRNTYPYEGVQRYCRSREKGPYAAKTDGVRQVQPYNEGALLYSIANQPVSVVLEAAGKDFQLYRGGIFVGPCGNKVDHAVAAVGYGPNYILIKNSWGTGWGENGYIRIKRGTGNSYGVCGLYTSSFYPVKN	good water-solubility	YES	900	at least six months	at least six months	at least two years
DAS.1: papain grafted onto starch polyaldehyde (DAS) of aldehyde titre 3.16 x 10⁻³ meq CHO/mg and reduced with sodium borohydride (conjugate, UniProt P00784 134-345, looked up, grafted onto starch polyaldehyde, borohydride-reduced, papain grafted onto starch polyaldehyde (DAS) of aldehyde titre 3.16 x 10⁻³ meq CHO/mg and reduced with sodium borohydride) Papain: IPEYVDWRQKGAVTPVKNQGSCGSCWAFSAVVTIEGIIKIRTGNLNEYSEQELLDCDRRSYGCNGGYPWSALQLVAQYGIHYRNTYPYEGVQRYCRSREKGPYAAKTDGVRQVQPYNEGALLYSIANQPVSVVLEAAGKDFQLYRGGIFVGPCGNKVDHAVAAVGYGPNYILIKNSWGTGWGENGYIRIKRGTGNSYGVCGLYTSSFYPVKN	–	MICELLE	800	–	–	–
DAS.3: papain grafted onto starch polyaldehyde (DAS) of aldehyde titre 8 x 10⁻³ meq CHO/mg and reduced with sodium borohydride (conjugate, UniProt P00784 134-345, looked up, grafted onto starch polyaldehyde, borohydride-reduced, papain grafted onto starch polyaldehyde (DAS) of aldehyde titre 8 x 10⁻³ meq CHO/mg and reduced with sodium borohydride) Papain: IPEYVDWRQKGAVTPVKNQGSCGSCWAFSAVVTIEGIIKIRTGNLNEYSEQELLDCDRRSYGCNGGYPWSALQLVAQYGIHYRNTYPYEGVQRYCRSREKGPYAAKTDGVRQVQPYNEGALLYSIANQPVSVVLEAAGKDFQLYRGGIFVGPCGNKVDHAVAAVGYGPNYILIKNSWGTGWGENGYIRIKRGTGNSYGVCGLYTSSFYPVKN	–	YES	200	–	–	–
DAS.4: papain grafted onto starch polyaldehyde (DAS) of aldehyde titre 4.68 x 10⁻³ meq CHO/mg and reduced with sodium borohydride (conjugate, UniProt P00784 134-345, looked up, grafted onto starch polyaldehyde, borohydride-reduced, papain grafted onto starch polyaldehyde (DAS) of aldehyde titre 4.68 x 10⁻³ meq CHO/mg and reduced with sodium borohydride) Papain: IPEYVDWRQKGAVTPVKNQGSCGSCWAFSAVVTIEGIIKIRTGNLNEYSEQELLDCDRRSYGCNGGYPWSALQLVAQYGIHYRNTYPYEGVQRYCRSREKGPYAAKTDGVRQVQPYNEGALLYSIANQPVSVVLEAAGKDFQLYRGGIFVGPCGNKVDHAVAAVGYGPNYILIKNSWGTGWGENGYIRIKRGTGNSYGVCGLYTSSFYPVKN	–	YES	500	–	–	–
